What was measured:
[1] = system: 13 aa tau peptides of hT40; assay: Alanine scanning mutagenesis (ASM) peptide ELISA; type: binding, human; details: alanine substituted peptides; numbering SEQ ID NO: 1
Protocol: Briefly, 5 μg/ml streptavidin (Thermo Fisher) was adsorbed to Nunc 96-well MaxiSorp plates and following incubation at 37° C. for 1 h, the plates were washed as normal and blocked with 2% MPBS. N-terminally biotinylated peptides (Prolmmune Ltd) were added to the plates and incubated for 1 h at 37° C. Subsequently, test scAbs at starting concentrations of 100-500 nM was added and double diluted across the plate for each peptide and incubated for 1 h at 37° C. Rest of the ELISA was conducted as described above and the plates were read at absorbance 450 nm. Immunoreactivity of the scAb of interest was quantified as the % of scAb was bound for each peptide at a chosen concentration (FIG. 15-20).

dGAE aggregates = dGAE aggregates (Homo sapiens, UniProt P10636); assay: Epitope occlusion assay: dGAE aggregation with/without LMTM, 423 mAb capture ELISA; type: biochemical; details: total and supernatant samples; 423 mAb capture
dGAE aggregates, sequence (P10636 614-708): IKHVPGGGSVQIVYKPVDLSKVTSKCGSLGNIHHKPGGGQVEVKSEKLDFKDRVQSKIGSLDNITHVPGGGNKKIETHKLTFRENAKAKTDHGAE
Protocol: During dGAE aggregation in vitro, scAb binding regions on dGA/dGAE are ‘hidden’ or ‘occluded’ which leads to a loss of immunoreactivity in aggregation samples. Here we have shown the occlusion of binding regions in aggregated dGAE samples and the recovery of immunoreactivity in the presence of LMTM, a tau-aggregation inhibitor. For preparing the aggregates, 10 μl 10 mM DTT was added to 1000 μl 100 μM dGAE and agitated with/without LMTM (1:5 ratio) at 700 rpm for 24 h at 37° C. Following overnight agitation, one third of each sample was kept aside as ‘total’ and the rest was spun down at 16000×g for 30 min and separated into ‘supernatant’ and ‘pellet’. The pellet was then resuspended in half the original volume for further experiments. […] Doubling dilutions of dGAE aggregate ‘total’, ‘supernatant’ and ‘pellet’ samples at 10 μg/ml starting concentration were added to designated wells in doubling dilutions in 1×PBS. dGAE monomer (non-aggregated) was included as assay control. All double dilutions were done in final volumes of 100 μl. This was left to incubate on lab bench for 1 h followed by the addition of test scAbs at 10 μg/ml. Anti-HuCk HRP labelled secondary antibody was added as described previously and ELISA data generated is represented using the graph below.

aggregated dGAE = aggregated dGAE (Homo sapiens, UniProt P10636); assay: Capture ELISA ranking mAbs for capture of dGAE aggregates; type: binding; details: capture mAb 1 μg/ml; 800 nM aggregated dGAE
aggregated dGAE, sequence (P10636 614-708): as above
Protocol: The aggregation cascade of natively unfolded tau into insoluble filaments is a defining pathological feature of AD. Therefore, it is logical to target aggregated tau filaments for both therapeutic and diagnostic purposes. The following experiment was performed to assess the ability of our dGA mAb panel to bind aggregated dGAE using a capture ELISA method. Aggregates were prepared by incubating 100 μM dGAE and 10 mM dTT for 24 h at 37° C. with shaking at 700 RPM. The following day, dGAE aggregates were centrifuged at 17,000×g for 20 min and the supernatant was removed. The remaining pellet was washed with 10 mM phosphate buffer and centrifuged as above. Washing was repeated a further two times to remove any remaining dGAE monomer. The dGAE pellet was resuspended in 100 μl of 10 mM phosphate buffer. (Using a separate capture ELISA based quantification, we have worked out the efficiency of our dGAE aggregation as 80%)
Following washing, 800 nM aggregated dGAE was added to the designated wells, double diluted across the plate and incubated for 1 h at RT. The plate was washed again and 1 μg/ml S1G2 scAb was added as detection antibody and incubated for 1 h at RT. To the row where S1G2 mAb was used for capture, […] s1D12 scAb was added as […] instead of S1G2. The assay was developed using HRP labelled HuCK as described previously.

[2] = system: hT40, dGA, dGAE and truncated tau fragments; assay: Binding ELISA / epitope mapping of anti-tau scAbs with truncated tau proteins and 13mer peptides; parameters: species or system human; details: for Tau proteins/fragments with positive scAb reactivity: binding ELISA; for binding region on hT40: amino acid residues of hT40; for Binding region hT40: second Table 26, own antibodies
Summary of the method: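 Serially double-diluted scAbs were applied to 2% MPBS-blocked wells carrying either 1 μg/ml full-length or truncated tau, or biotinylated 13mer peptides (1 μg/ml) captured on 5 μg/ml streptavidin. Absorbance after HRP anti-human C kappa secondary gave the binding signal.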

[3] = Table 16, NS, S and M clones, incl. 13mer peptides
[4] = Table 26 summary, top scAbs, residues of hT40
[5] = residue numbers of SEQ ID NO: 1 (hT40), CDR Tables 1-11
[6] = Table 15, residue numbers of hT40

| Molecule | critical binding residues [1] | immunoreactivity to dGAE aggregation samples prepared in the presence of LMTM (dGAE aggregates) | ability to capture dGAE aggregates (aggregated dGAE) | Tau proteins/fragments with positive scAb reactivity ([2]; Table 16, NS, S and M clones) | Shortest region bound on hT40 [2, 3] | Epitope [2, 4] | binding region on hT40 [2] | Epitope [2, 5] | Binding region hT40 [2] | Detection scAb (Epitope) ([2]; Table 28 (LoD table), residues of hT40) | cross-reactivity using hT40, dGA and dGAE antigens ([2]; ELISA, 'E' group scAbs) | Tau proteins/fragments with positive scAb reactivity [2, 6] | Shortest region bound on hT40 [2, 6] | Tau proteins/fragments with positive scAb reactivity ([2]; Table 17, 'C' group scAbs) | Shortest region bound on hT40 ([2]; Table 17, 'C' group scAbs, incl. 13mer peptides) | Epitope ([2]; Table 26 summary, top scAbs, residues of hT40, listed as E1B8) | binding region on hT40 ([2]; listed as E1B8 scAb) | hT40 binding region ([2]; second Table 25, mAb format) |
| --- | --- | --- | --- | --- | --- | --- | --- | --- | --- | --- | --- | --- | --- | --- | --- | --- | --- | --- |
| S1D12: sheep-derived anti-tau core clone; scFv SEQ ID NO: 32, VH 443, VL 444 (protein, S1D12 amino acid sequence) scFv: QVQLQESGPSLVKPSQTLSLTCTVSGFSLNNNAVGWVRQAPGKVPESLVGCSSDGTCYYNSALKSRLDITRDTSKNQISLSLSSVTTDDAAVYYCTRGHYSIYGYDYLGTIDYWGPGLLVTVSSEGKSSGASGESKVDDQAVLTQPSSVSGSLGQRVSITCSGSSSNVGGGNSVGWYQHLPGSGLKTIIYDTNSRPSGVPDRFSGSRSGNTATLTINSLQAEDEGDYYCVTGDSTTHDDLVGSGTRLTVLG | 343 (K), 346 (F) and/or 349 (R) | increase in immunoreactivity | most efficient at capturing aggregated dGAE | hT40, 297-390 (dGA), 297-391 (dGAE), 186-350, 266-359, 337-368 | 337-355 | 337-349 | 337-355 | 337-355 | (Binding region hT40 337-355) |  |  |  |  |  |  |  |  |  |
| S1G2: sheep-derived anti-tau core clone; scFv SEQ ID NO: 81, VH 455, VL 456 (protein, S1G2 amino acid sequence) scFv: QVQLQESGPSLVKPSQTLSLTCTVSGFSLTSNSVGWVRQAPGKAPEWVAGIDTDGEEGYNPALNSRLSITRDTSKSQVSLSLSSVTSEDTAVYYCGRSYRADGLAYGYVQAIDYWGPGLLVTVSSEGKSSGASGESKVDDQAVVTQPSSVSGSLGQRVSITCSGSFIGISSVGWFQQLPGSGLRTIIVASDGRPSGVPDRFSMSKSGNTATLTISSLQAEDEADYFCGSSDRTPYTGVFGSGTRLTVLG |  |  | most efficient at capturing aggregated dGAE | hT40, 297-390 (dGA), 297-391 (dGAE), 369-390, 369-391 | 367-379 | 367-379 | 367-379 |  | (Binding region hT40 367-379) | S1G2 (367-379) |  |  |  |  |  |  |  |  |
| CE2: anti-tau core clone, Table 10; SEQ ID NO: 366 (protein, CE2/E1B8 amino acid sequence) scFv: QVQLQESGPSLVKPSQTLSLTCTVSGFSLTNYPVGWVRQAPGKALEWIGNIENDGSANYASALKSRLSITRDTSKNQVSLSLSSATTEDTAVYYCGREFGGSDGYTYFVDIDYWGPGLLVTVSSEGKSSGASGESKVDDQAVLTQPSSVSKSLGQSVSITCSGSSSNVGYGNYVSWFQQVPGSAPKILIYGATSRASGVPDRFSGSRSGNTATLTITSLQAEDEADYYCASYDGSSSGVFGSGTRLTVLG | 323 (G), 324 (S), 325 (L), 326 (G), 327 (N) and/or 328 (I) | increase in immunoreactivity |  |  |  | 319-331 |  | 319-331 |  |  | cross-reacts with dGA | 297-390 (dGA), 297-391 (dGAE), 313-336 | 313-336 | hT40, 266-359 (R1-3) | 319-331 | 316-336 | 313-336 | 319-331 |
